Test results from patent US20260092124A1.

Legend:
human CD40 (human) [1] = target: human CD40 (human) (UniProt P25942); assay: cell binding (GpL luciferase, HT1080-CD40); single representative experiment
human CD40 (human) [2] = target: human CD40 (human) (UniProt P25942); assay: cell binding (GpL luciferase, HT1080-CD40); mean, n=5

Sequence of human CD40 (human) (P25942 21-277): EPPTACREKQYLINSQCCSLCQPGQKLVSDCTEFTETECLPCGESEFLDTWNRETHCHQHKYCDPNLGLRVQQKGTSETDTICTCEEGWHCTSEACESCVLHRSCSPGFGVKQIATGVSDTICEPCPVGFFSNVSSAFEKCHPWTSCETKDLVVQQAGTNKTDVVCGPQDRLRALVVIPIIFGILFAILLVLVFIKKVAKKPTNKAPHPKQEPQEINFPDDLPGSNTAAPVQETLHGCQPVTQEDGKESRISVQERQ

| Substance | Kd (human CD40 (human) [1]) [µg/mL] | Kd (human CD40 (human) [2]) [µg/mL] |
| --- | --- | --- |
| APX005M IgG1 variant | 0.26 | 0.274 |
| G28.5 IgG1 variant | 0.08 | 0.086 |
| CP-870,893 IgG1 variant | 0.35 | 0.334 |
